Assay results reported in patent US20250145705A1 (SHANDONG SIMCERE BIOPHARMACEUTICAL, published 2025).
Values joined by “and” are separate entries in the source; they are usually repeats but may differ in a detail not shown here. Identical values can stand only once.

How the values were obtained:
human GPRC5D [1] = target: T1, human GPRC5D (human, UniProt Q9NZD1 1-345); experiment: FACS, HEK293T-hGPRC5D high pool
T1 construct: the cell line is named under assay; also called hGPRC5D; G protein coupled receptor C5 family subtype D

[2] = target: monkey GPRC5D (monkey (cyno)); experiment: FACS, CHOK1-cynoGPRC5D high pool
[3] = target: monkey GPRC5D (monkey (cyno)); experiment: FACS, HEK293T-cynoGPRC5D high pool
human GPRC5D [4] = target: T1, human GPRC5D; experiment: FACS, CHOK1-hGPRC5D high pool
human GPRC5D [5] = target: T1, human GPRC5D; experiment: FACS, MolP-8 cells
human GPRC5D [6] = target: T1, human GPRC5D; experiment: FACS, RPMI-8226 cells
Experimental: (§1) The desired cells were scale-up cultured in a T-75 cell culture flask to the logarithmic growth phase. NCI-H929, MolP-8 and RPMI-8226 cells were collected and washed with PBS buffer 2 times. After counting the cells, the cell pellet was resuspended with [PBS+2% (w/v) BSA] blocking solution to 2×10⁶ cells/ml, and added to a 96-well FACS reaction plate at 50 μl/well, and then the chimeric antibody test sample was added at 50 μl/well, and incubated on ice for 1 h. […] The obtained mixture was centrifuged and washed 3 times with a PBS buffer, and FACS (FACS CantoII, purchased from BD Company) was used for detection and result analysis. Data analysis was performed by software (Flowjo) to obtain the mean fluorescence intensity (MFI) of the cells. Then a software (GraphPad Prism8) was used for analysis, the analysis results are shown in Table 9 and FIGS. 9A-9C, 10A-10C and 11A-11C.

human GPRC5D [7] = target: T1, human GPRC5D; experiment: FACS, NCI-H929 cells
Experimental: as §1

[8] = target: hGPRC5D-LVP protein (human) (UniProt Q9NZD1); experiment: competitive ELISA, competitor Biotin-5F11; antibody at 5.56 nM
[9] = target: hGPRC5D-LVP protein (human) (UniProt Q9NZD1); experiment: competitive ELISA, competitor Biotin-5F11; antibody at 1.85 nM
[10] = target: hGPRC5D-LVP protein (human) (UniProt Q9NZD1); experiment: competitive ELISA, competitor Biotin-5F11; antibody at 0.62 nM
[11] = target: hGPRC5D-LVP protein (human) (UniProt Q9NZD1); experiment: competitive ELISA, competitor Biotin-5F11; antibody at 16.67 nM
[12] = target: hGPRC5D-LVP protein (human) (UniProt Q9NZD1); experiment: competitive ELISA, competitor Biotin-5F11; antibody at 0 nM
[13] = target: hGPRC5D-LVP protein (human) (UniProt Q9NZD1); experiment: competitive ELISA, competitor Biotin-5F11; antibody at 50.00 nM
[14] = target: hGPRC5D-LVP protein (human) (UniProt Q9NZD1); experiment: competitive ELISA, competitor Biotin-5F11; antibody at 0.07 nM
[15] = target: hGPRC5D-LVP protein (human) (UniProt Q9NZD1); experiment: competitive ELISA, competitor Biotin-5F11; antibody at 0.21 nM

T1 sequence (Q9NZD1 whole entry): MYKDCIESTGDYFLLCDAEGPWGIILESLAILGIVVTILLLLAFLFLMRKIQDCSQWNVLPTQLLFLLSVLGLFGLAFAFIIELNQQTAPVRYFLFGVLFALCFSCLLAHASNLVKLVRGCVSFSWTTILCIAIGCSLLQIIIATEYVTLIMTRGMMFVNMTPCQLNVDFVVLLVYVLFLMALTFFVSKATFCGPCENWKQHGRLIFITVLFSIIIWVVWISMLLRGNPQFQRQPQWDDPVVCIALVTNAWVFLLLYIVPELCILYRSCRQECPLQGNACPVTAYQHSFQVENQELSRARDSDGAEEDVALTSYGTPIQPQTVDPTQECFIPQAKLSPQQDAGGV
hGPRC5D-LVP protein (human), sequence (Q9NZD1 whole entry): as above
monkey GPRC5D (monkey (cyno)), sequence (Q9NZD1 other isoform, or with tags, fused parts or gaps): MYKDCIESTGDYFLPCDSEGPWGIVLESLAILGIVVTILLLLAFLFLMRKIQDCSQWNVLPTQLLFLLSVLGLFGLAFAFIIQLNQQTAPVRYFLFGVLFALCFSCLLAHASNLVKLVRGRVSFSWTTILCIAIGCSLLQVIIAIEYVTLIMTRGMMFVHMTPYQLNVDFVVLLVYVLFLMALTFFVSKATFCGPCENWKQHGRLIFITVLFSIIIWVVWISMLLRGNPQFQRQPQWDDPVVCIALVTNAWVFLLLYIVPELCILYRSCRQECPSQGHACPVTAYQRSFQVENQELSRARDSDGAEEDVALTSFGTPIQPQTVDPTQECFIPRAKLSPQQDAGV

Question: Which results are given for IgG subtype control (antibody)?
Answer: Cell mean fluorescence density (human GPRC5D [1]): 18.9; Mean fluorescence density [2]: 52.9; Mean fluorescence density [3]: 18.2; Mean fluorescence intensity (human GPRC5D [4]): 56.4

Question: anti-hel-hIgG1 (antibody) was tested. Which Maximum mean fluorescence intensity (human GPRC5D [5]) did it give?
Answer: Its Maximum mean fluorescence intensity is 81 and 103 and 90.

Question: And the Maximum mean fluorescence intensity (human GPRC5D [6])?
Answer: Its Maximum mean fluorescence intensity is 108 and 106 and 85.

Question: And the Maximum mean fluorescence intensity (human GPRC5D [7])?
Answer: The Maximum mean fluorescence intensity was 85 and 74.

Question: And the OD450 [8]?
Answer: The OD450 was 1.14 and 0.69 and 0.87.

Question: And the OD450 [9]?
Answer: Its OD450 is 1.16 and 0.7 and 0.89.

Question: And the OD450 [10]?
Answer: Its OD450 is 1.2 and 0.67 and 0.88.

Question: What about the OD450 [11] of the same molecule?
Answer: The OD450 was 1.15 and 0.65 and 0.9.

Question: And the OD450 [12]?
Answer: The OD450 was 1.22 and 0.57 and 0.94.

Question: And the OD450 [13]?
Answer: Its OD450 is 1.16 and 0.63 and 0.89.

Question: And the OD450 [14]?
Answer: Its OD450 is 1.24 and 0.62 and 0.92.

Question: What about the OD450 [15] of the same molecule?
Answer: The OD450 was 1.27 and 0.68 and 0.87.

B1: 5F11-hIgG1 (antibody, V domains shown)
VH: EVQLVESGGGLVQPGRSLKLSCAASGFSFSNYGMAWVRQAATKGLEWVASISTGGGNTYYRDSVKGRFIVSRDNAKNTQYLQMDSLRSEDTATYYCTRHDRGGLYWGQGVMVTVSS
VL: DIVMTQAPLSVSVTPGESASISCRSSKSLLHSNGITYVYWYFQKPGKSPQVLIYRMSNLASGVPDRFSGSGSETDFTLKISRVEAEDVGIYHCGQLLENPYTFGAGTELELKR
notes: Control antibody; VH and VL from WO 2019154890 A1 recombined into human IgG1 CH and CL expression vectors; also called h5F11-hIgG1; positive control antibody 5F11
Question: With B1 as the molecule, how does the EC50 (human GPRC5D [6]) read?
Answer: Its EC50 is 3.17 nM and 2.86 nM and 6.48 nM.

Question: And the EC50 (human GPRC5D [7])?
Answer: The EC50 was 1.25 nM and 3.5 nM and 1.97 nM.
